# B1: Activating molecule in BECN1-regulated autophagy protein 1 (Homo sapiens), Q9C0C7-3 (parent)
# chain: MKVVPEKNAVRILWGRERGARAMGAQRLLQELVEDKTRWMKWEGKRVELPDSPRSTFLLAFSPDRTLLASTHVNHNIYITEVKTGKCVHSLIGHRRTPWCVTFHPTISGLIASGCLDGEVRIWDLHGGSESWFTDSNNAIASLAFHPTAQLLLIATANEIHFWDWSRREPFAVVKTASEMERVRLVRFDPLGHYLLTAIVNPSNQQGDDEPEIPIDGTELSHYRQRALLQSQPVRRTPLLHNFLHMLSSRSSGIQVGEQSTVQDSATPSPPPPPPQPSTERPRTSAYIRLRQRVSYPTAECCQHLGILCLCSRCSGTRVPSLLPHQDSVPPASARATTPSFSFVQTEPFHPPEQASSTQQDQGLLNRPSAFSTVQSSTAGNTLRNLSLGPTRRSLGGPLSSHPSRYHREIAPGLTGSEWTRTVLSLNSRSEAESMPPPRTSASSVSLLSVLRQQEGGSQASVYTSATEGRGFPASGLATESDGGNGSSQNNSGSIRHELQCDLRRFFLEYDRLQELDQSLSGEAPQTQQAQEMLNNNIESERPGPSHQPTPHSSENNSNLSRGHLNRCRACHNLLTFNNDTLRWERTTPNYSSGEASSSWQVPSSFESVPSSGSQLPPLERTEGQTPSSSRLELSSSASPQEERTVGVAFNQETGHWERIYTQSSRSGTVSQEALHQDMPEESSEEDSLRRLSPAAYYAQRMIQYLSRRDSIRQRSMRYQQNRLRSSTSSSSSDNQGPSVEGTDLEFEDFEDNGDRSRHRAPRNARMSAPSLGRFVPRRFLLPEYLPYAGIFHERGQPGLATHSSVNRVLAGAVIGDGQSAVASNIANTTYRLQWWDFTKFDLPEISNASVNVLVQNCKIYNDASCDISADGQLLAAFIPSSQRGFPDEGILAVYSLAPHNLGEMLYTKRFGPNAISVSLSPMGRYVMVGLASRRILLHPSTEHMVAQVFRLQQAHGGETSMRRVFNVLYPMPADQRRHVSINSARWLPEPGLGLAYGTNKGDLVICRPEALNSGVEYYWDQLNETVFTVHSNSRSSERPGTSRATWRTDRDMGLMNAIGLQPRNPATSVTSQGTQTLALQLQNAETQTEREVPEPGTAASGPGEGEGSEYGASGEDALSRIQRLMAEGGMTAVVQREQSTTMASMGGFGNNIIVSHRIHRSSQTGTEPGAAHTSSPQPSTSRGLLPEAGQLAERGLSPRTASWDQPGTPGREPTQPTLPSSSPVPIPVSLPSAEGPTLHCELTNNNHLLDGGSSRGDAAGPRGEPRNR
# partner: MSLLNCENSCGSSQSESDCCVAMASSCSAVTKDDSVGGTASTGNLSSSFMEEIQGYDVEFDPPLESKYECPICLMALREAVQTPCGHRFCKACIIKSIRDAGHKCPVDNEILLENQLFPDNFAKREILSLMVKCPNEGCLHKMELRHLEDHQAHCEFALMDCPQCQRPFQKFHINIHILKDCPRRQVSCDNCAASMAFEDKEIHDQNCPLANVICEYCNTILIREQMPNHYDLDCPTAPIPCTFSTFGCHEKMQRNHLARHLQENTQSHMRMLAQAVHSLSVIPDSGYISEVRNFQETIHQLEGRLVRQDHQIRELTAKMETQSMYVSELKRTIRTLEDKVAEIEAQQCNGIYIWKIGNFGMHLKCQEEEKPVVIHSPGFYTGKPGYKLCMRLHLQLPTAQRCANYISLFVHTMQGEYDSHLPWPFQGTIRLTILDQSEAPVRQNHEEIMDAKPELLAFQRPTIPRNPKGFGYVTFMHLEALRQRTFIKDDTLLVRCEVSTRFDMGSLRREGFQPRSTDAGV
# Variants of: B1
# Details: with traf6_human TRAF6, Q9Y4K3
row,effect of a mutation on the interaction,Variant
1,disrupting interaction strength,E620A
